Patent US20210145976A1 (ARO BIOTHERAPEUTICS, published 2021)
Substitutions are numbered along the chain they refer to. Blank lines part the entries; values can stand above or below the binder they belong to.

How the values were obtained:
[1] = target: T1, recombinant biotinylated CD71 extracellular domain (Sino Biologics) with an N-terminal 6His tag (human, UniProt P02786 89-760, biotinylated (sites not given)); assay: screening ELISA
T1 construct: extracellular domain; also called hCD71; huCD71

[2] = target: T1, recombinant biotinylated CD71 …; assay: screening ELISA, ratio

T1 sequence (P02786 other isoform, or with tags, fused parts or gaps): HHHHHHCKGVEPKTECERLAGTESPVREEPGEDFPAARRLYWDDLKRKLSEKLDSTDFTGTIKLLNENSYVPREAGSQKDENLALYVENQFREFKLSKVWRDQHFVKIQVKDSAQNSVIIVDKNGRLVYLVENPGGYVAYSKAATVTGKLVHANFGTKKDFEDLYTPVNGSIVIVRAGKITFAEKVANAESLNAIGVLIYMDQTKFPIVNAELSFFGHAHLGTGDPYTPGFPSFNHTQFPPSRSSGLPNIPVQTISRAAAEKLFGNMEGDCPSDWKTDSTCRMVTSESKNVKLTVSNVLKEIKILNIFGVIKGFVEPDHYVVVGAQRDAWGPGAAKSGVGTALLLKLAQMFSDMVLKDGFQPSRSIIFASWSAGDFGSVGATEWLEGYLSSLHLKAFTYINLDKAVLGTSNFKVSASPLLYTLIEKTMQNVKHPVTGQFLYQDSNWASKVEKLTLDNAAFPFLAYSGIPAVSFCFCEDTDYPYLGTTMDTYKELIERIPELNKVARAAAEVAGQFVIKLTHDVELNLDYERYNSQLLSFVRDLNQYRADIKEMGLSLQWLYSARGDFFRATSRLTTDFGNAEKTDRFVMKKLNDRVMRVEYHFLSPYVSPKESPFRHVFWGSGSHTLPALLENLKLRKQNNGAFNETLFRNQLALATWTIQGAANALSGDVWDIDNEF

hCD71 [1]: 434000
hCD71:HSA [2]: 130
B4: SEQ ID NO 205 (designed binder)
chain: MLPAPKNLVVSRVTEDSARLSWTAPDAAFDSFDIDYDEPAWNGEAIVLTVPGSERSYDLTGLKPGTEYRVFIYGVKGGNTSWPLSAIFTT
notes: FN3 domain

hCD71 [1]: 3.63e+06
hCD71:HSA [2]: 1730
B11: SEQ ID NO 200 (designed binder)
chain: MLPAPKNLVVSRVTEDSARLSWTAPDAAFDSFYIEYYEWMHTGEAIVLTVPGSERSYDLTGLKPGTEYSVYIYGVKGGYPSSPLSAIFTT
notes: FN3 domain

hCD71 [1]: 2.13e+06
hCD71:HSA [2]: 1210
B12: SEQ ID NO 215 (designed binder)
chain: B11 chain with Y33L, E35P, Y37A, W39T, M40S, H41P, Y71L, Y73H
notes: FN3 domain

hCD71 [1]: 3.44e+06
hCD71:HSA [2]: 1130
B14: SEQ ID NO 198 (designed binder)
chain: MLPAPKNLVVSRVTEDSARLSWTAPDAAFDSFLIAYNEDRKFGEAIVLTVPGSERSYDLTGLKPGTEYDVWIEGVKGGSLSFPLSAIFTT
notes: FN3 domain

hCD71 [1]: 1.6e+06
hCD71:HSA [2]: 62
B15: SEQ ID NO 207 (designed binder)
chain: MLPAPKNLVVSRVTEDSARLSWTAPDAAFDSFFIGYLEPQPPGEAIVLTVPGSERSYDLTGLKPGTEYNVTIQGVKGGTPSEPLSAISTT
notes: FN3 domain

hCD71 [1]: 1.67e+06
hCD71:HSA [2]: 32
B18: SEQ ID NO 223 (designed binder)
chain: MLPAPKNLVVSRVTEDSARLSWTAPDAAFDSFTIWYAEALGDGEAIVLTVPGSERSYDLTGLKPGTEYFVDIPGVKGGTRSSPLSAISTT
notes: FN3 domain

hCD71 [1]: 2.53e+06
hCD71:HSA [2]: 28
B19: SEQ ID NO 195 (designed binder)
chain: B4 chain with D33P, D35E, P39I, A40P, W41F, N42W, F71W, Y73H, T80S
notes: FN3 domain

hCD71 [1]: 2.19e+06
hCD71:HSA [2]: 101
B20: SEQ ID NO 216 (designed binder)
chain: MLPAPKNLVVSRVTEDSARLSWTAPDAAFDSFPIAYAEPTPSGEAIVLTVPGSERSYDLTGLKPGTEYSVLIHGVKGGGLSLPLSAIFTT
notes: FN3 domain

hCD71 [1]: 1e+06
hCD71:HSA [2]: 334
B22: SEQ ID NO 211 (designed binder)
chain: MLPAPKNLVVSRVTEDSARLSWTAPDAAFDSFWINYYEAQPDGEAIVLTVPGSERSYDLTGLKPGTEYDVEIAGVKGGTASLPLSAIFTT
notes: FN3 domain

hCD71 [1]: 4.5e+06
hCD71:HSA [2]: 1610
B25: SEQ ID NO 202 (designed binder)
chain: B11 chain with E35D, Y37L, W39L, M40T, H41Y, T42S, S69Y
notes: FN3 domain

hCD71 [1]: 3.31e+06
hCD71:HSA [2]: 1270
B27: SEQ ID NO 219 (designed binder)
chain: B11 chain with Y33H, E35D, Y37L, W39L, M40T, H41Y, T42A, S69Y, Y71T
notes: FN3 domain

hCD71 [1]: 1.16e+06
hCD71:HSA [2]: 514
B28: SEQ ID NO 210 (designed binder)
chain: MLPAPKNLVVSRVTEDSARLSWTAPDAAFDSFSIVYGERFVNGEAIVLTVPGSERSYDLTGLKPGTEYHVYIDGVKGGDLSWPLSAIFTT
notes: FN3 domain

Continued, binder first:

B1: SEQ ID NO 167 (designed binder)
chain: B15 chain with S88F
notes: FN3 domain
hCD71 [1]: 2.62e+06
hCD71:HSA [2]: 727

B2: SEQ ID NO 181 (designed binder)
chain: B20 chain with R12H, T40R, S42D, G79L, L82S
notes: FN3 domain
hCD71 [1]: 2.95e+06
hCD71:HSA [2]: 491

B3: SEQ ID NO 177 (designed binder)
chain: B15 chain with T79R, P80A, E82G, S88F
notes: FN3 domain
hCD71 [1]: 2.61e+06
hCD71:HSA [2]: 1060

B5: SEQ ID NO 180 (designed binder)
chain: MLPAPKNLVVSRVTEDSARLSWTAPDAAFDSFEISYYEMRGYGEAIVLTVPGSERSYDLTGLKPGTEYSVLIHGVEGGDYSSPLSAISTT
notes: FN3 domain
hCD71 [1]: 1.68e+06
hCD71:HSA [2]: 50

B6: SEQ ID NO 182 (designed binder)
chain: B15 chain with Q40Y, N69V, T71S, E82Q, S88F
notes: FN3 domain
hCD71 [1]: 3.12e+06
hCD71:HSA [2]: 1060

B7: SEQ ID NO 176 (designed binder)
chain: B20 chain with T40R, S42D, L71G, G79H, L80D, L82S
notes: FN3 domain
hCD71 [1]: 1.34e+06
hCD71:HSA [2]: 129

B8: SEQ ID NO 178 (designed binder)
chain: B20 chain with P33D, T40I, S42R, G79R, L80R, L82V
notes: FN3 domain
hCD71 [1]: 1.45e+06
hCD71:HSA [2]: 644

B9: SEQ ID NO 185 (designed binder)
chain: B4 chain with D33E, P39L, W41I, N42Y, R69G, F71M, Y73I, N79L, T80P, W82D
notes: FN3 domain
hCD71 [1]: 1.81e+06
hCD71:HSA [2]: 182

B10: SEQ ID NO 183 (designed binder)
chain: B20 chain with P33L, A35P, P39T, T40S, G79R, L80P, L82N, S85V, I87A
notes: FN3 domain
hCD71 [1]: 1.72e+06
hCD71:HSA [2]: 161

B13: SEQ ID NO 193 (designed binder)
chain: B18 chain with L40V, D42N, F69W, P73W, T79E, R80F, S88F
notes: FN3 domain
hCD71 [1]: 3.87e+06
hCD71:HSA [2]: 1550

B16: SEQ ID NO 188 (designed binder)
chain: B20 chain with P33L, A35P, P39T, T40S, G79K
notes: FN3 domain
hCD71 [1]: 2.67e+06
hCD71:HSA [2]: 797

B17: SEQ ID NO 169 (designed binder)
chain: B15 chain with T79F, E82V, S88F
notes: FN3 domain
hCD71 [1]: 2.85e+06
hCD71:HSA [2]: 1060

B21: SEQ ID NO 192 (designed binder)
chain: B15 chain with P25L, T79F, E82M, S88F
notes: FN3 domain
hCD71 [1]: 2.67e+06
hCD71:HSA [2]: 650

B23: SEQ ID NO 187 (designed binder)
chain: B11 chain with Y33V, Y37F, W39F, M40V, H41G, T42Y, Y71G, Y79K, P80L, S82P
notes: FN3 domain
hCD71 [1]: 3.06e+06
hCD71:HSA [2]: 422

B24: SEQ ID NO 170 (designed binder)
chain: MLPAPKNLVVSRVTEDSARLSWTAPDAAFDSFFIGYPEYPATGEAIVLTVPGSERSYDLTGLKPGTEYFVDINGVKGGSLSYPLSAIFTT
notes: FN3 domain
hCD71 [1]: 982000
hCD71:HSA [2]: 58

B26: SEQ ID NO 179 (designed binder)
chain: B20 chain with P33Y, T40R, S42D, S69P, L71P, H73P, G79P, L80G, L82S
notes: FN3 domain
hCD71 [1]: 2.68e+06
hCD71:HSA [2]: 36

B29: SEQ ID NO 175 (designed binder)
chain: B15 chain with N69S, T71V, T79F, E82D, S88F
notes: FN3 domain
hCD71 [1]: 3.55e+06
hCD71:HSA [2]: 2220
